{"source": "paper PMC5240567", "about": "“New Insights into Cooperative Binding of Homeodomain Transcription Factors PREP1 and PBX1 to DNA”", "key": {"[1]": {"molecular_target": "T1, PREP1hd (UniProt P55347)", "T1 sequence": "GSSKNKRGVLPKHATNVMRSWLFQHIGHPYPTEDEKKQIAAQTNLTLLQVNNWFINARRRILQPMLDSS", "test": "fluorescence polarization", "settings": "FP and EMSA: 20 mM Na/K phosphate pH 7.2, 150 mM NaCl, 5% glycerol, 1 mM TCEP, room temperature (FP 9 nM DNA, 30 min; EMSA gel run at 4 C in 0.5x TBE); NMR: …"}, "[2]": {"molecular_target": "T2, PREP1HD (UniProt P55347 240-344)", "T2 sequence": "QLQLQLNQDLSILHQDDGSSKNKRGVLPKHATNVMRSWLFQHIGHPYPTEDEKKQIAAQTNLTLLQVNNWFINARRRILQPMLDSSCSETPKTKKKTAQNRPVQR", "test": "fluorescence polarization; FP and EMSA: 20 mM Na/K phosphate pH 7.2, 150 mM NaCl, 5% glycerol, 1 mM TCEP, room temperature (FP 9 nM DNA, 30 min; EMSA gel run at 4 C in 0.5x TBE); NMR: 20", "settings": "protein: recombinant, tags: GST cleaved (pGEX-6P), label: 5' 6-FAM (FP)"}, "[3]": {"molecular_target": "T3, HOXB1HD (UniProt P14653 171-266)", "T3 sequence (P14653 171-266)": "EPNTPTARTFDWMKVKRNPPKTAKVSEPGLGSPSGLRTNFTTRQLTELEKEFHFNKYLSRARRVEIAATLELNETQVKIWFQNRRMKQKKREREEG", "test": "fluorescence polarization; FP and EMSA: 20 mM Na/K phosphate pH 7.2, 150 mM NaCl, 5% glycerol, 1 mM TCEP, room temperature (FP 9 nM DNA, 30 min; EMSA gel run at 4 C in 0.5x TBE); NMR: 20", "settings": "protein: recombinant, tags: GST cleaved (pGEX-6P), label: 5' 6-FAM (FP)"}, "[4]": {"molecular_target": "T4, PBX1HD (UniProt P40424 227-317)", "T4 sequence": "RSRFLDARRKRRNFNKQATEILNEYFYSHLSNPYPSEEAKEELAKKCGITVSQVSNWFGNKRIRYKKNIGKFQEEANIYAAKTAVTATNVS", "test": "fluorescence polarization; FP and EMSA: 20 mM Na/K phosphate pH 7.2, 150 mM NaCl, 5% glycerol, 1 mM TCEP, room temperature (FP 9 nM DNA, 30 min; EMSA gel run at 4 C in 0.5x TBE); NMR: 20", "settings": "protein: recombinant, tags: GST cleaved (pGEX-6P)"}, "[5]": {"molecular_target": "T5, PREP1hd (UniProt P55347 257-325)", "T5 sequence": "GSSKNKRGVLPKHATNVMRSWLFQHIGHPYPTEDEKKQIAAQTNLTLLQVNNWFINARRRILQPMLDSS", "test": "fluorescence polarization; FP and EMSA: 20 mM Na/K phosphate pH 7.2, 150 mM NaCl, 5% glycerol, 1 mM TCEP, room temperature (FP 9 nM DNA, 30 min; EMSA gel run at 4 C in 0.5x TBE); NMR: 20", "settings": "protein: recombinant, tags: GST cleaved (pGEX-6P), label: 5' 6-FAM (FP)"}, "[6]": {"molecular_target": "T6, PREP1hd-N (UniProt P55347 240-325)", "T6 sequence": "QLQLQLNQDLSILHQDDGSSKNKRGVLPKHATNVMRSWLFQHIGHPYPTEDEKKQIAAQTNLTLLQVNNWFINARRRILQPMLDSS", "test": "fluorescence polarization; FP and EMSA: 20 mM Na/K phosphate pH 7.2, 150 mM NaCl, 5% glycerol, 1 mM TCEP, room temperature (FP 9 nM DNA, 30 min; EMSA gel run at 4 C in 0.5x TBE); NMR: 20", "settings": "protein: recombinant; tags: GST cleaved (pGEX-6P); label: 5' 6-FAM (FP); unlabeled in EMSA and NMR"}, "[7]": {"molecular_target": "T7, PREP1hd-C (UniProt P55347 257-344)", "T7 sequence": "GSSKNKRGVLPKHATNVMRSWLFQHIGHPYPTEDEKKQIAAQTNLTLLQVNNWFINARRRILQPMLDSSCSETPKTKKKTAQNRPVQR", "test": "fluorescence polarization; FP and EMSA: 20 mM Na/K phosphate pH 7.2, 150 mM NaCl, 5% glycerol, 1 mM TCEP, room temperature (FP 9 nM DNA, 30 min; EMSA gel run at 4 C in 0.5x TBE); NMR: 20", "settings": "protein: recombinant; tags: GST cleaved (pGEX-6P); label: 5' 6-FAM (FP); unlabeled in EMSA and NMR"}, "[8]": {"molecular_target": "T3, HOXB1HD", "test": "EMSA; FP and EMSA: 20 mM Na/K phosphate pH 7.2, 150 mM NaCl, 5% glycerol, 1 mM TCEP, room temperature (FP 9 nM DNA, 30 min; EMSA gel run at 4 C in 0.5x TBE); NMR: 20", "settings": "protein: recombinant; tags: GST cleaved (pGEX-6P); label: 5' 6-FAM (FP); unlabeled in EMSA"}, "[9]": {"settings": "label: 5' 6-FAM (FP), unlabeled in EMSA"}}, "data": [{"molecule": "AGGATAACCTGGGATT (double strand) [Control]", "values": [{"measurement": "Kd", "setting": "[1]", "value": 836, "unit": "µM"}]}, {"molecule": "PH (dsDNA) DNA 1: AGAGTGATTGATAAGG DNA 2: CCTTATCAATCACTCT", "values": [{"measurement": "Kd", "setting": "[2]; unlabeled in EMSA", "value": "23.5 ± 2", "unit": "µM"}, {"measurement": "Kd", "setting": "[3]; unlabeled in EMSA", "value": "6.2 ± 0.1", "unit": "µM"}, {"measurement": "Kd", "setting": "[4]; [9]", "value": "2.1 ± 0.3", "unit": "µM"}, {"measurement": "Kd", "setting": "[5]; unlabeled in EMSA", "value": "51.4 ± 2.5", "unit": "µM"}]}, {"molecule": "PMH (dsDNA) DNA 1: AGTGATTGACAGATTC DNA 2: GAATCTGTCAATCACT", "values": [{"measurement": "Kd", "setting": "[2]; unlabeled in EMSA and NMR", "value": "15.4 ± 1", "unit": "µM"}, {"measurement": "Kd", "setting": "[3]; unlabeled in EMSA and NMR", "value": "2.7 ± 0.2", "unit": "µM"}, {"measurement": "Kd", "setting": "[6]", "value": "23.7 ± 2.6", "unit": "µM"}, {"measurement": "Kd", "setting": "[4]; label: 5' 6-FAM (FP), unlabeled in EMSA and NMR", "value": "0.36 ± 0.1", "unit": "µM"}, {"measurement": "Kd", "setting": "[5]; unlabeled in EMSA and NMR", "value": "31.8 ± 1.5", "unit": "µM"}, {"measurement": "Kd", "setting": "[7]", "value": "15.5 ± 0.6", "unit": "µM"}]}, {"molecule": "Control (dsDNA) DNA 1: AGGATAACCTGGGATT DNA 2: AATCCCAGGTTATCCT", "values": [{"measurement": "binding result", "setting": "[8]", "value": "binds"}, {"measurement": "Kd", "setting": "[2]; unlabeled in EMSA", "value": "159 ± 5.2", "unit": "µM"}, {"measurement": "Kd", "setting": "[4]; [9]", "value": "2.5 ± 0.4", "unit": "µM"}]}, {"molecule": "Control* (dsDNA) DNA 1: CGTCAGCCCTACGGGA DNA 2: TCCCGTAGGGCTGACG", "values": [{"measurement": "Kd", "setting": "[4]; label: 5' 6-FAM", "value": "2.1 ± 0.1", "unit": "µM"}]}, {"molecule": "PH* (dsDNA) DNA 1: AGAGTGATTGATCGGC DNA 2: GCCGATCAATCACTCT", "values": [{"measurement": "Kd", "setting": "[4]; label: 5' 6-FAM", "value": "3.3 ± 0.5", "unit": "µM"}]}]}
